Blank lines part the entries; values can stand above or below the sequence they belong to.
Experiments:
[1] = target: HLA-B*40:01; assay: IEDB peptide-MHC binding, purified MHC/direct/fluorescence; filed as Kd, often an IC50 or EC50 that approximates it; ≥ and ≤ were set here for values at or beyond the usual limits of such assays; details: source organism: Influenza A virus (A/Moscow/346/2003(H3N2))
[2] = target: HLA-B*15:01; assay: as above; details: source organism: Yersinia pestis
[3] = target: HLA-A*02:01; assay: as above
[4] = target: HLA-A*69:01; assay: as above
[5] = target: HLA-A*01:01; assay: as above; details: source organism: Mycobacterium tuberculosis F11
[6] = target: HLA-A*03:01; assay: as above; details: source organism: Mycobacterium tuberculosis F11
[7] = target: HLA-B*40:01; assay: IEDB peptide-MHC binding, purified MHC/competitive/radioactivity; filed as Kd, often an IC50 or EC50 that approximates it; ≥ and ≤ were set here for values at or beyond the usual limits of such assays
[8] = target: HLA-B*44:02; assay: as above
[9] = target: HLA-A*32:01; assay: as above
[10] = target: HLA-A*24:02; assay: as above; details: source organism: Homo sapiens
[11] = target: HLA-A*11:01; assay: IEDB peptide-MHC binding, purified MHC/direct/fluorescence; filed as Kd, often an IC50 or EC50 that approximates it; ≥ and ≤ were set here for values at or beyond the usual limits of such assays
[12] = target: HLA-B*07:02; assay: as above; details: source organism: Mycobacterium tuberculosis F11
[13] = target: HLA-A*30:02; assay: IEDB peptide-MHC binding, purified MHC/competitive/radioactivity; filed as Kd, often an IC50 or EC50 that approximates it; ≥ and ≤ were set here for values at or beyond the usual limits of such assays; details: source organism: Dengue virus 1 Brazil/97-11/1997
[14] = target: HLA-A*26:01; assay: as above
[15] = target: HLA-A*01:01; assay: as above; details: source organism: Dengue virus 3 Martinique/1243/1999
[16] = target: HLA-B*44:03; assay: as above; details: source organism: Dengue virus 1 Brazil/97-11/1997
[17] = target: HLA-A*02:01; assay: IEDB peptide-MHC binding, purified MHC/competitive/fluorescence; ≥ and ≤ were set here for values at or beyond the usual limits of such assays; details: source organism: Influenza B virus
[18] = target: HLA-B*53:01; assay: IEDB peptide-MHC binding, purified MHC/competitive/radioactivity; filed as Kd, often an IC50 or EC50 that approximates it; ≥ and ≤ were set here for values at or beyond the usual limits of such assays
[19] = target: HLA-A*02:06; assay: as above; details: source organism: Dengue virus 4 Philippines/H241/1956
[20] = target: HLA-B*35:01; assay: as above; details: source organism: Dengue virus 2 Jamaica/1409/1983
[21] = target: HLA-B*58:01; assay: IEDB peptide-MHC binding, purified MHC/direct/fluorescence; filed as Kd, often an IC50 or EC50 that approximates it; ≥ and ≤ were set here for values at or beyond the usual limits of such assays; details: source organism: SARS-CoV1
[22] = source organism: Yersinia pestis
[23] = source organism: Escherichia coli O157:H7
[24] = source organism: Dengue virus 1 Singapore/S275/1990
[25] = source organism: Dengue virus 1 Brazil/97-11/1997
[26] = source organism: Vaccinia virus WR
[27] = source organism: Dengue virus 3 Martinique/1243/1999
[28] = source organism: Dengue virus 2 Jamaica/1409/1983
[29] = source organism: Dengue virus 4 Philippines/H241/1956

Sequence: VETPIRNEW
Kd [1]: ≥ 20000 nM

Sequence: FMHSAAPIT
Kd [2]: 1920 nM | Kd [3, 22]: 216 nM | Kd [4, 22]: 7660 nM

Kd [3, 23]: 6000 nM | Kd [4, 23]: ≥ 20000 nM
Sequence: ALEKGIKDV

Sequence: AVNPGGNIY
Kd [5]: 3000 nM | Kd [6]: ≥ 20000 nM

Sequence: LENDMKFTV
Kd [7, 24]: 124 nM

Sequence: FEKQLGQIM
Kd [7, 25]: 558 nM | Kd [8, 25]: 2550 nM

Sequence: RTIYNETSI
Kd [9, 26]: 1.03 nM

Kd [10]: 28 nM
Sequence: LYSACFWWL

Sequence: RTMFLFVFR
Kd ([11]; source organism: Mycobacterium tuberculosis): 94.6 nM

Sequence: APEFVTAAA
Kd [12]: 933 nM

Sequence: GVVTTSGTY
Kd [13]: 169 nM | Kd [14, 25]: 403 nM

Sequence: VTYLALIATF
Kd [15]: ≥ 50800 nM | Kd [14, 27]: ≥ 21200 nM

Sequence: ELIMKDGRKL
Kd [14, 27]: 12500 nM

Sequence: MESEGIFSP
Kd [7, 24]: 2270 nM

Sequence: EDMLAVWNRV
Kd [9, 28]: 219 nM

Sequence: QERGKSLLF
Kd [16]: 117 nM

Sequence: TLARGFPFV
Kd ([4]; source organism: West Nile virus): ≤ 1 nM

Sequence: DEDHAHWTEA
Kd [9, 25]: 390 nM

Sequence: KLGEFYNQMM
IC50 [17]: 2820 nM

Sequence: CESCVYNMM
Kd [7, 29]: 201 nM | Kd [8, 29]: 180 nM

Sequence: YVILTILTII
Kd [18, 29]: 5330 nM | Kd [19]: 2.38 nM

Sequence: EELGDGLAM
Kd [7, 25]: 221 nM | Kd [16]: 76.6 nM

Sequence: TPEGIIPSM
Kd [20]: 7.57 nM | Kd [18, 28]: 252 nM

Sequence: LATGPVLTLW
Kd [18, 29]: 44.8 nM

Sequence: SALNHTKKW
Kd [21]: 350 nM | Kd ([11]; source organism: SARS-CoV1): 17100 nM

Sequence: VMCSISLTY
Kd [9, 26]: 10.8 nM

Sequence: VTLNISSKF
Kd [9, 26]: 10.6 nM

Sequence: SQSTIPETI
Kd [9, 28]: ≥ 24100 nM
